Earlier results in paper PMC8799529.
pKd: −log10 of the molar value.

Target: p38 MAPK (Homo sapiens) (UniProt Q16539)
UniProt Q16539, sequence (Q16539 2-360): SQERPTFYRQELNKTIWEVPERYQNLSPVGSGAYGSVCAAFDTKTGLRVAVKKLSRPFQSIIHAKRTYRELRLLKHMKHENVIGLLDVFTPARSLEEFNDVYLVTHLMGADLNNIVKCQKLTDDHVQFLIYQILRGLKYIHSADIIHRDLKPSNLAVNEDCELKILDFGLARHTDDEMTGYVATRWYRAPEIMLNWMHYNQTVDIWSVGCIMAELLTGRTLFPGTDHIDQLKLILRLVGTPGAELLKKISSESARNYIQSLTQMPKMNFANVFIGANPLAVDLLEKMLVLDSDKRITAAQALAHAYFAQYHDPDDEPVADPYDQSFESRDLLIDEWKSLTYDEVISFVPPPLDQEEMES

- pKd: 8.60
Substance: MK2 (from UniProt P49137)
